Reference: patent US20250043302A1, “MUTATED HYDROXYPHENYLPYRUVATE DIOXYGENASE POLYPEPTIDE, AND CODING GENE AND USE THEREOF” (BEIJING DABEINONG BIOTECHNOLOGY CO., LTD., priority 2021, published 2025)

How the values were obtained:
Type in all cases: in vivo
[1] = test system: Arabidopsis thaliana T1 plants; test: Topramezone tolerance of transgenic Arabidopsis thaliana T1 plants (spray, bleached leaf area grade, damage score); conditions: 7 DAT, Table 4; for Classification and statistics of the grade of pesticide damage: Grade 0 / Classification and statistics of the grade of pesticide damage: Grade 1 / Classification and statistics of the grade of pesticide damage: Grade 2 / Classification and statistics of the grade of pesticide damage: Grade 3: number of plants; for Scores: pesticide damage score 0-100
In short: (§1)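 Damage graded 0–3 from the proportion of bleached leaf area 7 days after spraying. Plants were glufosinate-selected T1 lines, 18 days after sowing, plus vector and wild-type controls. Rates: mesotrione 52.5–420, isoxaflutole 35–280, topramezone 25–200 g ai/ha, with water (0×).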

[2] = test system: Arabidopsis thaliana T1 plants; test: Isoxaflutole tolerance of transgenic Arabidopsis thaliana T1 plants (spray, bleached leaf area grade, damage score); parameters: Scores (pesticide damage): scale not given here; conditions: spray, Arabidopsis thaliana T1 plants; for Classification and statistics of the grade of pesticide damage: Grade 0 (number of plants) / Classification and statistics of the grade of pesticide damage: Grade 1 (number of plants) / Classification and statistics of the grade of pesticide damage: Grade 2 (number of plants) / Classification and statistics of the grade of pesticide damage: Grade 3 (number of plants): 16 plants
In short: as §1

[3] = test system: Arabidopsis thaliana T1 plants; test: Mesotrione tolerance of transgenic Arabidopsis thaliana T1 plants (spray, bleached leaf area grade, damage score); parameters: Scores: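 damage score 0-100 computed as Σ(N×S)/(T×M)×100 over grades 0-3 with higher meaning more damage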; conditions: Arabidopsis thaliana T1 plants; for Grade 0 (classification and statistics of the grade of pesticide damage; number of plants) / Grade 1 (classification and statistics of the grade of pesticide damage; number of plants) / Grade 2 (classification and statistics of the grade of pesticide damage; number of plants) / Grade 3 (classification and statistics of the grade of pesticide damage; number of plants): 16 plants
In short: as §1

[4] = isoxaflutole 35 g ai/ha (0.5x field concentration)
[5] = isoxaflutole 70 g ai/ha (1x field concentration)

Row | Molecule | Classification and statistics of the grade of pesticide damage: Grade 0 ([1]; topramezone 25 g ai/ha (1×)) | Classification and statistics of the grade of pesticide damage: Grade 1 ([1]; topramezone 25 g ai/ha (1×)) | Classification and statistics of the grade of pesticide damage: Grade 2 ([1]; topramezone 25 g ai/ha (1×)) | Classification and statistics of the grade of pesticide damage: Grade 3 ([1]; topramezone 25 g ai/ha (1×)) | Classification and statistics of the grade of pesticide damage: Grade 0 ([1]; topramezone 100 g ai/ha (4×)) | Classification and statistics of the grade of pesticide damage: Grade 1 ([1]; topramezone 100 g ai/ha (4×)) | Classification and statistics of the grade of pesticide damage: Grade 2 ([1]; topramezone 100 g ai/ha (4×)) | Classification and statistics of the grade of pesticide damage: Grade 3 ([1]; topramezone 100 g ai/ha (4×)) | Scores ([1]; topramezone 25 g ai/ha (1×)) | Scores ([1]; topramezone 100 g ai/ha (4×)) | Resistance evaluation ([1]; topramezone 25 g ai/ha (1×)) | Resistance evaluation ([1]; topramezone 100 g ai/ha (4×)) | Resistance evaluation [2, 4] | Scores (pesticide damage) [2, 4] | Classification and statistics of the grade of pesticide damage: Grade 0 (number of plants) [2, 4] | Classification and statistics of the grade of pesticide damage: Grade 1 (number of plants) [2, 4] | Classification and statistics of the grade of pesticide damage: Grade 2 (number of plants) [2, 4] | Classification and statistics of the grade of pesticide damage: Grade 3 (number of plants) [2, 4] | Resistance evaluation [2, 5] | Scores (pesticide damage) [2, 5] | also measured
1 | HvHPPD-02: nucleotide sequence encoding wild-type Hordeum vulgare HPPD; vector DBN11762 (nucleic acid, HvHPPD-02 Nucleotide Sequence, vector DBN11762) DNA: ATGCCGCCGACGCCCACCACCCCAGCAGCTACCGGAGCTGCGGCTGCAGTAACCCCTGAGCATGCTCGGCCCCACAGGATGGTGAGGTTTAATCCAAGATCAGATCGTTTTCATACACTCTCGTTCCACCATGTTGAGTTCTGGTGCGCCGACGCGGCTTCAGCGGCCGGGAGGTTCGCCTTCGCGCTGGGGGCCCCTCTTGCCGCGCGTAGTGATTTGTCTACTGGGAATTCAGCGCACGCGTCCCAGCTTCTCCGAAGCGGCAGTCTCGCCTTTCTCTTCACTGCACCATATGCAAATGGATGTGATGCAGCAACTGCTTCCCTGCCGAGCTTTTCTGCGGATGCCGCGAGGCGATTCAGTGCTGACCATGGGATCGCCGTCCGGTCAGTTGCTCTTAGAGTGGCTGATGCTGCTGAGGCATTCAGGGCTTCAAGGCGTCGTGGTGCACGCCCGGCGTTTGCCCCGGTTGATCTTGGGCGGGGGTTTGCTTTTGCAGAGGTGGAGCTGTACGGCGACGTGGTGCTCCGATTTGTTTCTCACCCGGACGGCACTGATGTGCCCTTCTTGCCAGGATTTGAAGGTGTGACCAACCCTGATGCCGTGGATTATGGACTCACAAGATTTGATCATGTGGTTGGCAATGTTCCTGAATTGGCACCTGCTGCCGCTTACATCGCAGGTTTTACTGGCTTCCATGAATTTGCTGAATTCACGGCGGAGGATGTTGGTACAACTGAGTCAGGGCTGAACAGTGTTGTTTTAGCCAACAACTCAGAAGGAGTTCTCCTTCCCTTGAATGAACCTGTTCATGGAACCAAGCGCCGCTCCCAAATTCAAACATTTCTTGAGCACCACGGCGGCCCTGGTGTTCAACATATTGCTGTCGCCTCTAGCGACGTCCTGCGTACATTACGCAAGATGAGGGCTCGGTCCGCAATGGGTGGTTTCGACTTCCTCCCTCCACCATTGCCAAAATATTATGAAGGCGTCAGAAGACTTGCAGGAGATGTCCTCTCTGAAGCTCAGATCAAGGAGTGCCAAGAACTTGGCGTCTTGGTTGATAGAGATGACCAAGGAGTACTTCTGCAGATATTTACAAAACCCGTTGGTGACAGGCCAACTCTTTTCCTGGAGATGATTCAGAGAATTGGCTGCATGGAGAAAGATGAAAGAGGCGAGGAGTACCAGAAGGGTGGTTGTGGAGGCTTTGGAAAAGGAAACTTCTCAGAGCTGTTCAAGTCCATAGAAGATTACGAGAAAAGTCTAGAAGCCAAGCAGTCTGCTGCAGTGCAAGGTTCCTGA | 0 | 0 | 0 | 16 | 0 | 0 | 0 | 16 | 100 | 100 | non-resistant (non-resistant plants (scores 68-100)) | non-resistant (non-resistant plants (scores 68-100)) | Non-resistant | 100 | 0 | 0 | 0 | 16 | Non-resistant | 100 | Classification and statistics of the grade of pesticide damage: Grade 0 (number of plants) [2, 5]: 0; Classification and statistics of the grade of pesticide damage: Grade 1 (number of plants) [2, 5]: 0; Classification and statistics of the grade of pesticide damage: Grade 2 (number of plants) [2, 5]: 0; Classification and statistics of the grade of pesticide damage: Grade 3 (number of plants) [2, 5]: 16; Resistance evaluation ([3]; mesotrione 52.5 g ai/ha): Non-resistant; Scores ([3]; mesotrione 52.5 g ai/ha): 100; Grade 0 (classification and statistics of the grade of pesticide damage; number of plants) ([3]; mesotrione 52.5 g ai/ha): 0; Grade 1 (classification and statistics of the grade of pesticide damage; number of plants) ([3]; mesotrione 52.5 g ai/ha): 0; Grade 2 (classification and statistics of the grade of pesticide damage; number of plants) ([3]; mesotrione 52.5 g ai/ha): 0; Grade 3 (classification and statistics of the grade of pesticide damage; number of plants) ([3]; mesotrione 52.5 g ai/ha): 16; Resistance evaluation ([3]; mesotrione 105 g ai/ha): Non-resistant; Scores ([3]; mesotrione 105 g ai/ha): 100; Grade 0 (classification and statistics of the grade of pesticide damage; number of plants) ([3]; mesotrione 105 g ai/ha): 0; Grade 1 (classification and statistics of the grade of pesticide damage; number of plants) ([3]; mesotrione 105 g ai/ha): 0; Grade 2 (classification and statistics of the grade of pesticide damage; number of plants) ([3]; mesotrione 105 g ai/ha): 0; Grade 3 (classification and statistics of the grade of pesticide damage; number of plants) ([3]; mesotrione 105 g ai/ha): 16
2 | HvHPPDm-F372A-F383W-02: nucleotide sequence encoding Hordeum vulgare HPPD with F372A+F383W; vector DBN11765 (nucleic acid, HvHPPDm-F372A-F383W-02 Nucleotide Sequence, vector DBN11765) DNA: ATGCCGCCGACGCCCACCACCCCAGCAGCTACCGGAGCTGCGGCTGCAGTAACCCCTGAGCATGCTCGGCCCCACAGGATGGTGAGGTTTAATCCAAGATCAGATCGTTTTCATACACTCTCGTTCCACCATGTTGAGTTCTGGTGCGCCGACGCGGCTTCAGCGGCCGGGAGGTTCGCCTTCGCGCTGGGGGCCCCTCTTGCCGCGCGTAGTGATTTGTCTACTGGGAATTCAGCGCACGCGTCCCAGCTTCTCCGAAGCGGCAGTCTCGCCTTTCTCTTCACTGCACCATATGCAAATGGATGTGATGCAGCAACTGCTTCCCTGCCGAGCTTTTCTGCGGATGCCGCGAGGCGATTCAGTGCTGACCATGGGATCGCCGTCCGGTCAGTTGCTCTTAGAGTGGCTGATGCTGCTGAGGCATTCAGGGCTTCAAGGCGTCGTGGTGCACGCCCGGCGTTTGCCCCGGTTGATCTTGGGCGGGGGTTTGCTTTTGCAGAGGTGGAGCTGTACGGCGACGTGGTGCTCCGATTTGTTTCTCACCCGGACGGCACTGATGTGCCCTTCTTGCCAGGATTTGAAGGTGTGACCAACCCTGATGCCGTGGATTATGGACTCACAAGATTTGATCATGTGGTTGGCAATGTTCCTGAATTGGCACCTGCTGCCGCTTACATCGCAGGTTTTACTGGCTTCCATGAATTTGCTGAATTCACGGCGGAGGATGTTGGTACAACTGAGTCAGGGCTGAACAGTGTTGTTTTAGCCAACAACTCAGAAGGAGTTCTCCTTCCCTTGAATGAACCTGTTCATGGAACCAAGCGCCGCTCCCAAATTCAAACATTTCTTGAGCACCACGGCGGCCCTGGTGTTCAACATATTGCTGTCGCCTCTAGCGACGTCCTGCGTACATTACGCAAGATGAGGGCTCGGTCCGCAATGGGTGGTTTCGACTTCCTCCCTCCACCATTGCCAAAATATTATGAAGGCGTCAGAAGACTTGCAGGAGATGTCCTCTCTGAAGCTCAGATCAAGGAGTGCCAAGAACTTGGCGTCTTGGTTGATAGAGATGACCAAGGAGTACTTCTGCAGATAGCCACAAAACCCGTTGGTGACAGGCCAACTCTTTGGCTGGAGATGATTCAGAGAATTGGCTGCATGGAGAAAGATGAAAGAGGCGAGGAGTACCAGAAGGGTGGTTGTGGAGGCTTTGGAAAAGGAAACTTCTCAGAGCTGTTCAAGTCCATAGAAGATTACGAGAAAAGTCTAGAAGCCAAGCAGTCTGCTGCAGTGCAAGGTTCCTGA | 16 | 0 | 0 | 0 | 10 | 6 | 0 | 0 | 0 | 13 | highly | highly | Moderately | 25 | 4 | 12 | 0 | 0 | Moderately | 33 | Classification and statistics of the grade of pesticide damage: Grade 0 (number of plants) [2, 5]: 1; Classification and statistics of the grade of pesticide damage: Grade 1 (number of plants) [2, 5]: 14; Classification and statistics of the grade of pesticide damage: Grade 2 (number of plants) [2, 5]: 1; Classification and statistics of the grade of pesticide damage: Grade 3 (number of plants) [2, 5]: 0; Resistance evaluation ([3]; mesotrione 52.5 g ai/ha): Highly resistant; Scores ([3]; mesotrione 52.5 g ai/ha): 8; Grade 0 (classification and statistics of the grade of pesticide damage; number of plants) ([3]; mesotrione 52.5 g ai/ha): 12; Grade 1 (classification and statistics of the grade of pesticide damage; number of plants) ([3]; mesotrione 52.5 g ai/ha): 4; Grade 2 (classification and statistics of the grade of pesticide damage; number of plants) ([3]; mesotrione 52.5 g ai/ha): 0; Grade 3 (classification and statistics of the grade of pesticide damage; number of plants) ([3]; mesotrione 52.5 g ai/ha): 0; Resistance evaluation ([3]; mesotrione 105 g ai/ha): Moderately; Scores ([3]; mesotrione 105 g ai/ha): 29; Grade 0 (classification and statistics of the grade of pesticide damage; number of plants) ([3]; mesotrione 105 g ai/ha): 2; Grade 1 (classification and statistics of the grade of pesticide damage; number of plants) ([3]; mesotrione 105 g ai/ha): 14; Grade 2 (classification and statistics of the grade of pesticide damage; number of plants) ([3]; mesotrione 105 g ai/ha): 0; Grade 3 (classification and statistics of the grade of pesticide damage; number of plants) ([3]; mesotrione 105 g ai/ha): 0
